According to patent US20210355194A1 (TWIST BIOSCIENCE, published 2021):
Changes are numbered by the printed parent chain. Where two headings read alike, the source gives them in different places.

B1: variant 6-40 (Fc fusion)
VHH: EVQLVESGGGLVQPGGSLRLSCAASGFTFSDYWMGWFRQAPGKERELVARVWWNGGSAYYADSVKGRFTISADNSKNTAYLQMNSLKPEDTAVYYCAREVLRQQVVLDYWGQGTLVTVSS
B2: variant 6-20 (Fc fusion)
VHH: EVQLVESGGGLVQPGGSLRLSCAASGSTLPYHAMGWFRQAPGKEREFVAAITWNGASTSYADSVKGRFTISADNSKNTAYLQMNSLKPEDTAVYYCARDRYYDTSASYFESETWGQGTLVTVSS
notes: VHH-Fc
B3: variant 6-41 (Fc fusion)
VHH: EVQLVESGGGLVQPGGSLRLSCAASGFTFSTSWMGWFRQAPGKEREFVASINEYGGRNYADSVKGRFTISADNSKNTAYLQMNSLKPEDTAVYYCAGLHYYYDSSGYNPTEYYGMDVWGQGTLVTVSS
B4: variant 6-54 (Fc fusion)
VHH: EVQLVESGGGLVQPGGSLRLSCAASGFEFENHWMGWFRQAPGKEREYVAHITAGGLSNYADSVKGRFTISADNSKNTAYLQMNSLKPEDTAVYYCGRHWGIYDSSGFSSFDYWGQGTLVTVSS
B5: variant 6-30 (Fc fusion)
VHH: EVQLVESGGGLVQPGGSLRLSCAASGFAFGDSWMGWFRQAPGKEREFVATINWSGVTAYADSVKGRFTISADNSKNTAYLQMNSLKPEDTAVYYCARADGYFDYWGQGTLVTVSS
B6: variant 6-7 (Fc fusion)
VHH: B5 VHH with A28T, G30S, D31S, S32Y, G100D
B7: variant 6-77 (Fc fusion)
VHH: EVQLVESGGGLVQPGGSLRLSCAASGFTFDRSWMGWFRQAPGKEREFVAAVTEGGTTSYADSVKGRFTISADNSKNTAYLQMNSLKPEDTAVYYCARADYDFDYWGQGTLVTVSS
B8: variant 6-44 (Fc fusion)
VHH: EVQLVESGGGLVQPGGSLRLSCAASGGTFGVYHMGWFRQAPGKEREFIGRITWTDGSTYYADSVKGRFTISADNSKNTAYLQMNSLKPEDTAVYYCFGLLEVYDMTFDYWGQGTLVTVSS
B9: variant 5-1 (Fc fusion)
VHH: EVQLVESGGGLVQPGGSLRLSCAASGGTFSSIGMGWFRQAPGKEREFVAAISWDGGATAYADSVKGRFTISADNSKNTAYLQMNSLKPEDTAVYYCAKEDVGKPFDWGQGTLVTVSS
notes: VHH-Fc
B10: variant 6-57 (Fc fusion)
VHH: EVQLVESGGGLVQPGGSLRLSCAASGLTFDDHSMGWFRQAPGKEREFVAAVPLSGNTYYADSVKGRFTISADNSKNTAYLQMNSLKPEDTAVYYCASFSGGPADFDYWGQGTLVTVSS
B11: variant 6-65 (Fc fusion)
VHH: EVQLVESGGGLVQPGGSLRLSCAASGLPFSTLHMGWFRQAPGKEREFVASLSIFGATGYADSVKGRFTISADNSKNTAYLQMNSLKPEDTAVYYCWMYYYDSSGYYGNYYYGMDVWGQGTLVTVSS
B12: variant 6-18 (Fc fusion)
VHH: EVQLVESGGGLVQPGGSLRLSCAASGLTFRNYAMGWFRQAPGKEREFIAGMMWSGGTTTYADSVKGRFTISADNSKNTAYLQMNSLKPEDTAVYYCAREGYYYDSSGYLNYFDYWGQGTLVTVSS
B13: variant 6-38 (Fc fusion)
VHH: EVQLVESGGGLVQPGGSLRLSCAASGNTFSGGFMGWFRQAPGKEREFVAVISSLSSKSYADSVKGRFTISADNSKNTAYLQMNSLKPEDTAVYYCAKVDSGYDYWGQGTLVTVSS
B14: variant 6-34 (Fc fusion)
VHH: EVQLVESGGGLVQPGGSLRLSCAASGSAFRSNAMGWFRQAPGKEREFVAHISWSSKSTYYADSVKGRFTISADNSKNTAYLQMNSLKPEDTAVYYCATYCSSTSCFDYWGQGTLVTVSS
B15: variant 6-60 (Fc fusion)
VHH: EVQLVESGGGLVQPGGSLRLSCAASGDTYGSYWMGWFRQAPGKEREFVATISQSGAATAYADSVKGRFTISADNSKNTAYLQMNSLKPEDTAVYYCAGLLRYSGTYYDAFDVWGQGTLVTVSS
notes: VHH-Fc
B16: variant 6-39 (Fc fusion)
VHH: EVQLVESGGGLVQPGGSLRLSCAASGFTFSPSWMGWFRQAPGKEREFVAAISWSGGSTAYADSVKGRFTISADNSKNTAYLQMNSLKPEDTAVYYCHGLGEGDPYGDYEGYFDLWGQGTLVTVSS
B17: 2-4 (antibody, V domains shown)
VH: EVQLLESGGGLVQPGGSLRLSCAASGFTFSDFAMAWVRQAPGKGLEWVSAISGSGDITYYADSVKGRFTISRDNSKNTLYLQMNSLRAEDTAVYYCAREADGLHSPWHFDLWGQGTLVTVSS
VL: DIQMTQSPSSLSASVGDRVTITCRASQSIDTYLNWYQQKPGKAPKLLIYAASALASGVPSRFSGSGSGTDFTLTISSLQPEDFATYYCQQSYSAPPYTFGQGTKVEIK
notes: also called variant 2-4
B18: variant 5-37 (Fc fusion)
VHH: EVQLVESGGGLVQPGGSLRLSCAASGSTFSINAMGWFRQAPGKEREFVGGISRSGATTNYADSVKGRFTISADNSKNTAYLQMNSLKPEDTAVYYCAADGVPEYSDYASGPVWGQGTLVTVSS
notes: VHH-Fc
B19: variant 5-20 (Fc fusion)
VHH: EVQLVESGGGLVQPGGSLRLSCAASGRTIVPYTMGWFRQAPGKERELVAAISPSAFTEYADSVKGRFTISADNSKNTAYLQMNSLKPEDTAVYYCAARRWGYDWGQGTLVTVSS
notes: VHH-Fc
B20: variant 5-34 (Fc fusion)
VHH: EVQLVESGGGLVQPGGSLRLSCAASGRTFSRYIMGWFRQAPGKEREFVAAISWSGGDNTYYADSVKGRFTISADNSKNTAYLQMNSLKPEDTAVYYCAAYRIVVGGTSPGDWRWGQGTLVTVSS
notes: VHH-Fc
B21: variant 6-67 (Fc fusion)
VHH: EVQLVESGGGLVQPGGSLRLSCAASGSFSNYAMGWFRQAPGKEREFVAAISSSGALTSYADSVKGRFTISADNSKNTAYLQMNSLKPEDTAVYYCWIVGPGPLDGMDVWGQGTLVTVSS
B22: variant 6-55 (Fc fusion)
VHH: EVQLVESGGGLVQPGGSLRLSCAASGFTMSSSWMGWFRQAPGKEREFVARITSGGSTGYADSVKGRFTISADNSKNTAYLQMNSLKPEDTAVYYCASVDGYFDYWGQGTLVTVSS
notes: VHH-Fc
B23: variant 6-45 (Fc fusion)
VHH: EVQLVESGGGLVQPGGSLRLSCAASGNMFSINAMGWFRQAPGKEREFVTLISWSSGRTSYADSVKGRFTISADNSKNTAYLQMNSLKPEDTAVYYCASLGYCSGGSCFDYWGQGTLVTVSS
B24: variant 6-76 (Fc fusion)
VHH: EVQLVESGGGLVQPGGSLRLSCAASGLAFDFDGMGWFRQAPGKEREGVAAINSGGSTYYADSVKGRFTISADNSKNTAYLQMNSLKPEDTAVYYCARFFRAHDYWGQGTLVTVSS
notes: VHH-Fc
B25: variant 6-47 (Fc fusion)
VHH: EVQLVESGGGLVQPGGSLRLSCAASGRTFSMHAMGWFRQAPGKERELVASITYGGNINYADSVKGRFTISADNSKNTAYLQMNSLKPEDTAVYYCAKEGYYDSTGYRTYFQQWGQGTLVTVSS
B26: variant 6-73 (Fc fusion)
VHH: EVQLVESGGGLVQPGGSLRLSCAASGHTFSGYAMGWFRQAPGKEREFVAVITREGSTYYADSVKGRFTISADNSKNTAYLQMNSLKPEDTAVYYCARLGGEGFDYWGQGTLVTVSS
notes: VHH-Fc
B27: variant 6-10 (Fc fusion)
VHH: EVQLVESGGGLVQPGGSLRLSCAASGSIASIHAMGWFRQAPGKEREFVAAISRSGGFGSYADSVKGRFTISADNSKNTAYLQMNSLKPEDTAVYYCARDDKYYDSSGYPAYFQHWGQGTLVTVSS
B28: variant 6-1 (Fc fusion)
VHH: EVQLVESGGGLVQPGGSLRLSCAASGRTFGNYNMGWFRQAPGKEREFVATINSLGGTSYADSVKGRFTISADNSKNTAYLQMNSLKPEDTAVYYCARVDYYMDVWGQGTLVTVSS
B29: variant 6-26 (Fc fusion)
VHH: EVQLVESGGGLVQPGGSLRLSCAASGDTFSTSWMGWFRQAPGKEREFVATINTGGGTNYADSVKGRFTISADNSKNTAYLQMNSLKPEDTAVYYCARVTTSFDYWGQGTLVTVSS
notes: VHH-Fc

How the values were obtained:
[1] = biological target: SARS-COV2-S1 RBD (mouse IgG2Fc tag) (SARS-CoV-2, UniProt P0DTC2 319-537)
[2] = biological target: T1, Acro SARS-CoV-2 (COVID-19) S1 protein (SARS-CoV-2, UniProt P0DTC2 16-685); assay: SPR
T1 construct: also called SARS-CoV-2 S1

[3] = biological target: SARS-COV2-S1 RBD (mouse IgG2Fc tag) (SARS-CoV-2, UniProt P0DTC2 319-537); assay: FACS, S1 RBD-mFc on Vero E6 (ACE2)
[4] = biological target: T2, Acro SARS-CoV-2 (COVID-19) S1 protein (SARS-CoV-2, UniProt P0DTC2 16-685); assay: SPR; remark: listed apart in the source
T2 construct: also called SARS-CoV-2 S1

[5] = biological target: SARS-CoV-2 spike on live SARS-CoV-2 virus (SARS-CoV-2, UniProt P0DTC2 14-1273); assay: cell-based or functional assay
SARS-CoV-2 S1 protein = biological target: T3, SARS-CoV-2 S1 protein (SARS-CoV-2, UniProt P0DTC2 16-685); assay: phage ELISA screen on S1, mean
T3 construct: also called SARS-CoV-2 Spike Glycoprotein S1; S1 (subunit 1)

Binder	IC50 [1]	Kd [2]	Competition Factor [3]	Kd [4]	also measured
B1	1.36 nM				
B2		20.9 nM	9.95		
B3	6.6 nM				
B4	8.9 nM				
B5	2.94 nM			11.8 nM	
B6	1.53 nM				
B7	4.04 nM			24.6 nM	
B8	0.97 nM			8.2 nM	EC80 [5]: 3.16 µg/mL
B9		15.1 nM	10		
B10	3.13 nM				
B11	37.5 nM				
B12	12.3 nM			30.1 nM	
B13	1.94 nM			26.6 nM	
B14	8.24 nM			21.3 nM	
B15		20.1 nM	12.6		
B16	1.53 nM			11.3 nM	
B17					ELISA(Avg) (SARS-CoV-2 S1 protein): 15.5 fold over background
B18		30.2 nM	8.19		
B19		14.3 nM	12.4		
B20			5.69		
B21	3.8 nM				
B22		25.2 nM	7.98		
B23	1.16 nM			17.5 nM	EC80 [5]: 4.02 µg/mL
B24		33.5 nM	9.96		
B25	5.86 nM				
B26		103 nM	7.99		
B27	1.44 nM			29.7 nM	
B28	15.8 nM				
B29		38.7 nM	6.41		
